Holding throughout (details): protein: recombinant; tags: AGH N-terminal after intein cleavage
The target in series [1] is T1, Cyp33 RRM (human, UniProt Q9UNP9 1-114). The series can be described thus: NMR structure and titration; low affinity, multiple registers; NMR titrations: 20 mM KHPO4 pH 7, 40 mM KCl, 1 mM DTT, 289.15 K as printed (table S2 says 298.15 K for Kd); structures of complexes: 40 mM KCl, 20 mM KH2PO4 pH.
Series [2] deals with T1, Cyp33 RRM. Put plainly: NMR titration; weak, fast exchange; NMR titrations: 20 mM KHPO4 pH 7, 40 mM KCl, 1 mM DTT, 289.15 K as printed (table S2 says 298.15 K for Kd); structures of complexes: 40 mM KCl, 20 mM KH2PO4 pH.
Another series addresses Cyp33 RRMΔα (human, UniProt Q9UNP9 1-90). The series can be described thus: NMR structure and titration; single register, larger shifts than with a3; NMR titrations: 20 mM KHPO4 pH 7, 40 mM KCl, 1 mM DTT, 289.15 K as printed (table S2 says 298.15 K for Kd); structures of complexes: 40 mM KCl, 20 mM KH2PO4 pH.
Series [3] deals with T1, Cyp33 RRM. The series can be described thus: NMR titration; NMR titrations: 20 mM KHPO4 pH 7, 40 mM KCl, 1 mM DTT, 289.15 K as printed (table S2 says 298.15 K for Kd); structures of complexes: 40 mM KCl, 20 mM KH2PO4 pH.
In the next series the target is Cyp33-RK (RRM) (human, UniProt Q9UNP9 1-114, R86A;K88A). The series is described as above.
For a further series, the target named is Cyp33-K (RRM) (human, UniProt Q9UNP9 1-114, K83A). Described as above.

Drawing on publication PMC10115415, “RNA binding induces an allosteric switch in Cyp33 to repress MLL1-mediated transcription”, this text covers binding result and Kd for 3 molecules.

T1 sequence (Q9UNP9 1-114): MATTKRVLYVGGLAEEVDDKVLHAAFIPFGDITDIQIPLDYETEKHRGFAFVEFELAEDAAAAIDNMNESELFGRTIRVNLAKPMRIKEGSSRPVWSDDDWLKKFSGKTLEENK
Cyp33 RRMΔα, sequence (Q9UNP9 1-90, stated change not applied): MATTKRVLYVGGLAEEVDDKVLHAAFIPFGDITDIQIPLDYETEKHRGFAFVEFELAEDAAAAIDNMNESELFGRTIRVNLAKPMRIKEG
Cyp33-RK (RRM), sequence (Q9UNP9 1-114 R86A/K88A): as the sequence (Q9UNP9 1-114) above, with R86A, K88A counted along it
Cyp33-K (RRM), sequence (Q9UNP9 1-114 K83A): as the sequence (Q9UNP9 1-114) above, with K83A counted along it

B1: AAUAAA RNA (poly-A signal) (ssRNA)
RNA: AAUAAA
On to B1, for which the binding result with Cyp33 RRM [1] was “binds”.

B2: UAAUGUCG RNA (ssRNA)
RNA: UAAUGUCG
Take B2: the binding result with Cyp33 RRM [2] and with Cyp33 RRMΔα was “binds” throughout.

B3: UAAUGU RNA (ssRNA)
RNA: UAAUGU
One may read the Kd as the constant that tells how readily two partners part at equilibrium. Consider B3, for which the Kd in the series with Cyp33 RRM [3] is approximately 300 µM; with Cyp33-RK (RRM), approximately 2000 µM; with Cyp33-K (RRM), approximately 1800 µM.
